Here are results for 32 substances from patent publication US20230038638A1, “COMPLEMENT FACTOR I-RELATED COMPOSITIONS AND METHODS” (published 2023).

The target of experiment [1] is soluble human C3b (human) (UniProt P01024).
Experiment [2] has as its target T1, human C4b (human) (UniProt P0C0L4).
T1 sequence: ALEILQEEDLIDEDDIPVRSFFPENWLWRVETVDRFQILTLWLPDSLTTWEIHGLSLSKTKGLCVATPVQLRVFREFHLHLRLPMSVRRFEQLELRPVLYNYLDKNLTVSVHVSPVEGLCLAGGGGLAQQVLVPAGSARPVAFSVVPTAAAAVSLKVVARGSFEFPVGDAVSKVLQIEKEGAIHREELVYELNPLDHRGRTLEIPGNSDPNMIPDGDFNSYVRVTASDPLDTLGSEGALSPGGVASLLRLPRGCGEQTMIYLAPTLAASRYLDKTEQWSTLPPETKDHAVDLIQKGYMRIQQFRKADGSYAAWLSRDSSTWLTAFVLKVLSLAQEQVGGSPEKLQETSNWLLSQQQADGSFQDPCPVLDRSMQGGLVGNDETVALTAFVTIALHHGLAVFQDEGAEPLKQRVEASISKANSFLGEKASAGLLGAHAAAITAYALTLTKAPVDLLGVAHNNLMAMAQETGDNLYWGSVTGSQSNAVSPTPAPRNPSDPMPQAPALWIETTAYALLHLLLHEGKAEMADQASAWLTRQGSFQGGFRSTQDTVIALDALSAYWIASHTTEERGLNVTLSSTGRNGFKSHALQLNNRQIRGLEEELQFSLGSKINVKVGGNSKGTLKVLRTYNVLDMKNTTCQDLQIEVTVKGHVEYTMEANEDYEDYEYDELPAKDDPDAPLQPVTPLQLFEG

In experiment [3] the target is soluble human C3b (human) (UniProt P01024). This is another data set of the same source.
Experiment [4] addresses T2, human C4b (human) (UniProt P0C0L5).
T2 sequence: T1 sequence with A151T, D317G, P364L, C365S, L368I, D369H, N420S, V451A, L454R, S530A

Where a chain is given by its changes, count along the chain named.

In turn, CFI-HSA variant E457G; E416A (enzyme) came in with an iC3b EC50 in experiment [1] of 7.1 nM. In the experiment with human C4b (human) [2], the C4c EC50 worked out at 94.9 nM. For the same substance, the iC3b Screen Ref Fold (fold of CFI-HSA wild type) in experiment [3] worked out at 1.41. In addition, in the experiment with human C4b (human) [4], the C4b Screen Ref Fold (fold of CFI-HSA wild type) was determined as 4.63.
CFI-HSA variant E457G; E461G (enzyme) came in with an iC3b EC50 in experiment [1] of 22.2 nM. Besides, in the experiment with human C4b (human) [2], the C4c EC50 (nM) was 222 nM. The iC3b Screen Ref Fold (fold vs CFI-HSA wild type) in experiment [3] was 1.28. Further, the C4b Screen Ref Fold (fold vs CFI-HSA wild type) in the experiment with human C4b (human) [4] is 4.31.
Take CFI-HSA variant E457G; E461Q (enzyme): the iC3b EC50 in experiment [1] was found to be 5.5 nM. This substance showed a C4c EC50 (nM) with human C4b (human) [2] of 53.1 nM. Also, the iC3b Screen Ref Fold (fold vs CFI-HSA wild type) in experiment [3] worked out at 1.44. Also, the C4b Screen Ref Fold (fold vs CFI-HSA wild type) in the experiment with human C4b (human) [4] amounted to 5.84.
Turning to CFI-HSA variant E457G; N422K (enzyme), the iC3b EC50 in experiment [1] stood at 5.2 nM. The substance also displayed a C4c EC50 with human C4b (human) [2] of 32.6 nM. In addition, the iC3b Screen Ref Fold (fold of CFI-HSA wild type) in experiment [3] was found to be 1.51. In the experiment with human C4b (human) [4], this substance registered a C4b Screen Ref Fold (fold of CFI-HSA wild type) of 5.49.
In the same order, the values of “CFI-HSA variant E457G; N531G; D425K (enzyme)” are 4.4 nM, 12.7 nM, 0.99 and 5.43.
For “CFI-HSA variant E457G; N531G; D425R; E416A (enzyme)”, the iC3b EC50 in experiment [1] was determined as 3.1 nM. In the experiment with human C4b (human) [2], this substance registered a C4c EC50 (nM) of 4.1 nM. Further, the iC3b Screen Ref Fold (fold of CFI-HSA wild type) in experiment [3] turned out to be 2.12. The C4b Screen Ref Fold (fold of CFI-HSA wild type) with human C4b (human) [4] turned out to be 4.54.
In the same order, the values of “CFI-HSA variant E457G; N531G; E461Q; R462K; F464Y; E416A (enzyme)” are 5.2 nM, 7.5 nM, 2.21 and 4.38.
With “CFI-HSA variant E457G; N531G; K534Q (enzyme)”, the iC3b EC50 in experiment [1] turned out to be 7.1 nM. The same substance had a C4c EC50 in the experiment with human C4b (human) [2] of 16.9 nM. For the same substance, the iC3b Screen Ref Fold (fold of CFI-HSA wild type) in experiment [3] is 0.96. Besides, the C4b Screen Ref Fold (fold of CFI-HSA wild type) in the experiment with human C4b (human) [4] was determined as 6.34.
In experiment [1], “CFI-HSA variant E457G; N531G; N422K (enzyme)” gave an iC3b EC50 of 4.7 nM. The C4c EC50 with human C4b (human) [2] was 7 nM. Further, the iC3b Screen Ref Fold (fold of CFI-HSA wild type) in experiment [3] turned out to be 1.46. The same substance yielded a C4b Screen Ref Fold (fold of CFI-HSA wild type) with human C4b (human) [4] of 4.37.
Substance “CFI-HSA variant E457G; N531G; P535G; K534Q (enzyme)” showed an iC3b EC50 in experiment [1] of 8.2 nM. Further, the C4c EC50 in the experiment with human C4b (human) [2] was 48.3 nM. The iC3b Screen Ref Fold (fold of CFI-HSA wild type) in experiment [3] worked out at 2.34. In the experiment with human C4b (human) [4], this substance showed a C4b Screen Ref Fold (fold of CFI-HSA wild type) of 5.28.
For “CFI-HSA variant E457G; N531G; P558S (enzyme)”, in that order: 6.7 nM, 17.5 nM, 0.92 and 5.87.
For CFI-HSA variant E457G; P535G (enzyme), in that order: 13.8 nM, 158 nM, 0.68 and 1.93.
The substance “CFI-HSA variant E457G; P535G; D425K (enzyme)” registered an iC3b EC50 in experiment [1] of 6 nM. Besides, in the experiment with human C4b (human) [2], the C4c EC50 is 90 nM. In addition, in experiment [3], the iC3b Screen Ref Fold (fold of CFI-HSA wild type) turned out to be 1.02. The same substance showed a C4b Screen Ref Fold (fold of CFI-HSA wild type) with human C4b (human) [4] of 4.15.
CFI-HSA variant E457H (enzyme) showed an iC3b EC50 in experiment [1] of 78.7 nM. Moreover, the C4c EC50 (nM) with human C4b (human) [2] is 886 nM. The iC3b Screen Ref Fold (fold vs CFI-HSA wild type) in experiment [3] is 0.26. For the same substance, the C4b Screen Ref Fold (fold vs CFI-HSA wild type) in the experiment with human C4b (human) [4] was found to be 0.31.
In the same order, the values of CFI-HSA variant E457I (enzyme) are 20.5 nM, 256 nM, 0.99 and 1.75.
For CFI-HSA variant E530D; F537K (enzyme), in that order: 15.6 nM, 373 nM, 0.98 and 0.92.
For CFI-HSA variant E530F (enzyme), in that order: 21.8 nM, > 1000 nM, 0.98 and 0.08.
CFI-HSA variant E530G; N531G (enzyme) yielded an iC3b EC50 in experiment [1] of 31.3 nM. Also, in the experiment with human C4b (human) [2], the C4c EC50 (nM) was > 1000 nM. The iC3b Screen Ref Fold (fold vs CFI-HSA wild type) in experiment [3] amounted to 0.54. In the experiment with human C4b (human) [4], the C4b Screen Ref Fold (fold vs CFI-HSA wild type) was determined as 0.04.
For CFI-HSA variant E530Y (enzyme), in that order: 16.1 nM, 381 nM, 1.16 and 0.33.
For CFI-HSA variant F464Y (enzyme), in that order: 55.4 nM, 347 nM, 0.27 and 0.55.
In the same order, the values of CFI-HSA variant F537K (enzyme) are 40.2 nM, 890 nM, 1.28 and 0.3.
As for CFI-HSA variant F537R (enzyme), the iC3b EC50 in experiment [1] was 29.1 nM. Also, the C4c EC50 (nM) with human C4b (human) [2] was found to be 645 nM. In addition, in experiment [3], the iC3b Screen Ref Fold (fold vs CFI-HSA wild type) amounted to 1.08. For the same substance, the C4b Screen Ref Fold (fold vs CFI-HSA wild type) in the experiment with human C4b (human) [4] amounted to 0.16.
CFI-HSA variant F559L; Y563H (enzyme): the iC3b EC50 in experiment [1] turned out to be 39.6 nM. The same substance showed a C4c EC50 with human C4b (human) [2] of 130 nM. For the same substance, the iC3b Screen Ref Fold (fold of CFI-HSA wild type) in experiment [3] is 0.71. The C4b Screen Ref Fold (fold of CFI-HSA wild type) in the experiment with human C4b (human) [4] was 1.03.
In the same order, the values of CFI-HSA variant G556A (enzyme) are 76 nM, > 1000 nM, 0.15 and 1.06.
For CFI-HSA variant G556S (enzyme), in that order: 29.7 nM, 180 nM, 0.55 and 1.53.
In experiment [1], CFI-HSA variant K504A (enzyme) yielded an iC3b EC50 of 51.9 nM. In addition, in the experiment with human C4b (human) [2], the C4c EC50 (nM) was > 1000 nM. Moreover, in experiment [3], the iC3b Screen Ref Fold (fold vs CFI-HSA wild type) came out at 0.41. Further, the C4b Screen Ref Fold (fold vs CFI-HSA wild type) with human C4b (human) [4] came out at 0.23.
In the same order, the values of CFI-HSA variant K504H (enzyme) are 53.6 nM, 229 nM, 0.54 and 3.84.
For CFI-HSA variant K504L (enzyme), in that order: 144 nM, > 1000 nM, 0.12 and 0.01.
In the same order, the values of CFI-HSA variant K504R (enzyme) are 33.7 nM, 439 nM, 0.89 and 0.51.
CFI-HSA variant K534Q (enzyme) gave an iC3b EC50 in experiment [1] of 21.7 nM. This substance had a C4c EC50 (nM) in the experiment with human C4b (human) [2] of 595 nM. Moreover, the iC3b Screen Ref Fold (fold vs CFI-HSA wild type) in experiment [3] stood at 1.53. In the experiment with human C4b (human) [4], the C4b Screen Ref Fold (fold vs CFI-HSA wild type) turned out to be 1.76.
With CFI-HSA variant N422K (enzyme), the iC3b EC50 in experiment [1] amounted to 10.9 nM. For the same substance, the C4c EC50 (nM) in the experiment with human C4b (human) [2] is 359 nM. In addition, in experiment [3], the iC3b Screen Ref Fold (fold vs CFI-HSA wild type) turned out to be 1.36. Further, the C4b Screen Ref Fold (fold vs CFI-HSA wild type) in the experiment with human C4b (human) [4] stood at 2.13.
In the same order, the values of CFI-HSA variant N476Q (enzyme) are 15.7 nM, > 1000 nM, 1.03 and 0.85.
